From IntAct's records for PubMed 10675337

B1: GA-binding protein subunit beta-1 (Homo sapiens), Q06547-2 (parent)
chain: MSLVDLGKKLLEAARAGQDDEVRILMANGAPFTTDWLGTSPLHLAAQYGHYSTTEVLLRAGVSRDARTKVDRTPLHMAASEGHASIVEVLLKHGADVNAKDMLKMTALHWATEHNHQEVVELLIKYGADVHTQSKFCKTAFDISIDNGNEDLAEILQIAMQNQINTNPESPDTVTIHAATPQFIIGPGGVVNLTDETGVSAVQFGNSSTSVLATLAALAEASAPLSNSSETPVVATEEVVTAESVDGAIQQVVSSGGQQVITIVTDGIQLGNLHSIPTSGIGQPIIVTMPDGQQVLTVPATDIAEETVISEEPPAKRQCIEIIENRVESAEIEEREALQKQLDEANREAQKYRQQLLKKEQEAEAYRQKLEAMTRLQTNKEAV

Variants of: B1
Settings: with hcfc1_human HCFC1, P51610
hcfc1_human HCFC1, P51610, sequence (P51610 whole entry): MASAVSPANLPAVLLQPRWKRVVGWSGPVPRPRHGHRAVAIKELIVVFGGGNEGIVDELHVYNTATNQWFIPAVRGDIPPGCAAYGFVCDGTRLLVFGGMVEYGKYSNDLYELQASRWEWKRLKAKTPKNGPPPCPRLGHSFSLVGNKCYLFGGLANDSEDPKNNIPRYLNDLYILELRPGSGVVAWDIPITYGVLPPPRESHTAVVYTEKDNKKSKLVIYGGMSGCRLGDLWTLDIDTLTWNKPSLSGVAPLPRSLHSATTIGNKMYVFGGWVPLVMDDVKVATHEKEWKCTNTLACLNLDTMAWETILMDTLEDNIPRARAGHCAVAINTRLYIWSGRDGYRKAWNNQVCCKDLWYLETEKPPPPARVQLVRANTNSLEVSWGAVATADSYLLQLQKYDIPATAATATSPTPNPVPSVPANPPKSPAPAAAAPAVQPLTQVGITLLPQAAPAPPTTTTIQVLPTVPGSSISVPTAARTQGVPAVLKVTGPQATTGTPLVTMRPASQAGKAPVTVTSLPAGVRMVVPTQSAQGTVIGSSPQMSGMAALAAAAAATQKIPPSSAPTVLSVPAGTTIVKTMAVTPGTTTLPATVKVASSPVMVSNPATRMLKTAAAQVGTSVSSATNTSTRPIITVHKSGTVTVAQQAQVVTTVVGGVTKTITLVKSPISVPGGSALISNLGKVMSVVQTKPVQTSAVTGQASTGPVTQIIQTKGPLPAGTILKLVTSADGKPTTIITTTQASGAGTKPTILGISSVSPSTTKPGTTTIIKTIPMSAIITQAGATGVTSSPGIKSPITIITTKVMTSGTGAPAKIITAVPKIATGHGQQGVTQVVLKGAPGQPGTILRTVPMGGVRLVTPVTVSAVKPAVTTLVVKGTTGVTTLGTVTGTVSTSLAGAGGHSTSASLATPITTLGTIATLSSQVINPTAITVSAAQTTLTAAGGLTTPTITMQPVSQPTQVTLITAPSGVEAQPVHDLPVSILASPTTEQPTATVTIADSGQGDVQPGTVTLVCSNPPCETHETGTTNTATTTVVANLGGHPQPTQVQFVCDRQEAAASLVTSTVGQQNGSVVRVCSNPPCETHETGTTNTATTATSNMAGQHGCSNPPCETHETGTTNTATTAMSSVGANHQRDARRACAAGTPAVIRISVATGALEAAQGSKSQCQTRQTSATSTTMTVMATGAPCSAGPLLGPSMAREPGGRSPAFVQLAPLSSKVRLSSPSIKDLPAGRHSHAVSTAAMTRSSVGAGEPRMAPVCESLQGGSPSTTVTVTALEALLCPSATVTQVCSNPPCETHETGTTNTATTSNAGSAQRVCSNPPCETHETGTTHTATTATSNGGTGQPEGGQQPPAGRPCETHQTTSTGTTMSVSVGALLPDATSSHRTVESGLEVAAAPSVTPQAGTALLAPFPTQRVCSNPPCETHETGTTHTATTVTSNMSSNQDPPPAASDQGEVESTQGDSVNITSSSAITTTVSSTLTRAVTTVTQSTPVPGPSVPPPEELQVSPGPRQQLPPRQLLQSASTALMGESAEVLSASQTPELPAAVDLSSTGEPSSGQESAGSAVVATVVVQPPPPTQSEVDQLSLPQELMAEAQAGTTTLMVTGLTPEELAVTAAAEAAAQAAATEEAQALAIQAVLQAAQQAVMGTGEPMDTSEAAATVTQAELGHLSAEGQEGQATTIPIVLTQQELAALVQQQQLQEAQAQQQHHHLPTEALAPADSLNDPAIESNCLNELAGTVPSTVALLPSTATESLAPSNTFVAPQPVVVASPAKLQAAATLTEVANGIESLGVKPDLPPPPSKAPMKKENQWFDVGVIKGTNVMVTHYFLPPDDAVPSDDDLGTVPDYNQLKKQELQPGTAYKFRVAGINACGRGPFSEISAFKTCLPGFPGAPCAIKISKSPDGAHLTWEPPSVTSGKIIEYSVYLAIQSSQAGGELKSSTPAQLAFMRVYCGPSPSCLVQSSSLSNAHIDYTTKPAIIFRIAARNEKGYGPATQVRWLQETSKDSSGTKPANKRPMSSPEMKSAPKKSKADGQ
For MSLVDLGKKLLEAARAGQDDEVRILMANGAPFTTDWLGTSPLHLAAQYGHYSTTEVLLRAGVSRDARTKVDRTPLHMAASEGHASIVEVLLKHGADVNAKDMLKMTALHWATEHNHQEVVELLIKYGADVHTQSKFCKTAFDISIDNGNEDLAEILQIAMQNQINTNPESPDTVTIHAATPQFIIGPGGVVNLTDETGVSAVQFGNSSTSVLATLAALAEASAPLSNSSETPVVATEEVVTAESVDGAIQQVVSSGGQQVITIVTDGIQLGNLHSIPTSGIGQPIIVTMPDGQQALTAPATDIAEETVISEEPPAKRQCIEIIENRVESAEIEEREALQKQLDEANREAQKYRQQLLKKEQEAEAYRQKLEAMTRLQTNKEAV [V295A;V298A], the “effect of a mutation on the interaction” value was “decreasing interaction”. With MSLVDLGKKLLEAARAGQDDEVRILMANGAPFTTDWLGTSPLHLAAQYGHYSTTEVLLRAGVSRDARTKVDRTPLHMAASEGHASIVEVLLKHGADVNAKDMLKMTALHWATEHNHQEVVELLIKYGADVHTQSKFCKTAFDISIDNGNEDLAEILQIAMQNQINTNPESPDTVTIHAATPQFIIGPGGVVNLTDETGVSAVQFGNSSTSVLATLAALAEASAPLSNSSETPVVATEEVVTAESVDGAIQQAASSGGQQVITIVTDGIQLGNLHSIPTSGIGQPIIVTMPDGQQVLTVPATDIAEETVISEEPPAKRQCIEIIENRVESAEIEEREALQKQLDEANREAQKYRQQLLKKEQEAEAYRQKLEAMTRLQTNKEAV [V252A;V253A] the “effect of a mutation on the interaction” value was “decreasing interaction”.
